Data reported in patent US11666658B2, “Rifamycin analogs and antibody-drug conjugates thereof” (Regeneron Pharmaceuticals, Inc., priority 2018, dated 2023).

Columns and labels:
[1] = target: T1, MSR1 on differentiated THP-1 cells (Homo sapiens, UniProt P21757); test: Binding and internalization of cell-surface expressed MSR1 (confocal imaging); type: cell-based; conditions: 10 μg/mL antibody
T1 construct: endogenously expressed human MSR1; endogenous in cells; host or cells: THP-1 cells treated with 200 nM PMA
T1 sequence (P21757 1-451): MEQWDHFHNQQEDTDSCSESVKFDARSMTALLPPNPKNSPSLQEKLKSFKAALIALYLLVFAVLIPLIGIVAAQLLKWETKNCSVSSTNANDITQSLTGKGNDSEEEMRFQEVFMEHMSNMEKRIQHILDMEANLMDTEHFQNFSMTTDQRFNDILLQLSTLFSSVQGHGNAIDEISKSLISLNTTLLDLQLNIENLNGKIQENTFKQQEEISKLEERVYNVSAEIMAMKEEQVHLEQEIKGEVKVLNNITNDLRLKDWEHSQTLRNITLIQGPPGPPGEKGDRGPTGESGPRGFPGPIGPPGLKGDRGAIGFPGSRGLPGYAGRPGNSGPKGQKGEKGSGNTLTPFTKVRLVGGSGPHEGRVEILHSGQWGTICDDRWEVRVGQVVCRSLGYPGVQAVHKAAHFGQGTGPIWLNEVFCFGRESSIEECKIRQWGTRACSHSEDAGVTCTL
Protocol: The THP-1 cells were allowed to differentiate for 4 days at 37° C. in 5% CO2. […] The remaining two plates were incubated at 37° C. for 1 hour followed by fixation and staining for 20 minutes using a solution of 4% PFA+5 μM DRAQ5 diluted in PBS (internalization plates). After fixation, all plates were washed once with PBS. […] The remaining plates were incubated with PBS only. Confocal images were acquired on the Opera Phenix (Perkin Elmer) at 40× magnification. […] The total binding at 4° C. (RFU values of 4° C. unquenched wells), total binding at 37° C.
For all calculations, background fluorescence from unstained wells was subtracted from every well. Total internalized RFU was calculated as follows: Total RFU of 37° C. unquenched samples—Surface RFU at 37° C. Surface RFU is defined as unquenched RFU at 37° C.-quenched RFU at 37° C.)/QE. QE (quenching efficiency) is defined as: 1-(Total RFU of 4° C. quenched sample/Total RFU of 4° C. unquenched sample). The % Internalization was determined from the following formula: (Total internalized RFU at 37° C./Total RFU at 37° C.)*100.

[2] = test system: S. aureus MRSA strain NRS384; test: S. aureus IV disseminated infection mouse model (humanized MSR1 mice), kidney burden; type: in vivo, Staphylococcus aureus; conditions: with vancomycin; for # of mice with S. aureus below the limit of detection: limit of detection = 250 cfu
Protocol: To test the efficacy of an anti-MSR1 Ab-antibiotic ncADC according to the disclosure in vivo, an intravenous disseminated infection model was utilized. S. aureus MRSA strain NRS384 was grown overnight in trypic soy broth (TSB) and sub-cultured to mid-logarithmic phase. Bacteria were then washed twice with PBS and resuspended in PBS at a concentration of 1.2×10^8 cfu/mL. […] From one to three days post infection, mice were treated with 110 mg/kg vancomycin subcutaneously twice daily wherein indicated. […] Mice were monitored for weight loss and body conditioning score throughout the infection. At four days post infection, mice were euthanized and the S. aureus kidney burden was quantified by tissue homogenization followed by enumeration of colony forming units through serial dilution in PBS and plating onto trypicase soy agar plates.

[3] = target: T2, mouse MSR1 extracellular domain (His9-mMSR1) (Mus musculus, UniProt P30204); test: OCTET bio-layer interferometry binding kinetics, 25° C.; conditions: antibody-capture format
T2 construct: mouse MSR1 extracellular domain expressed with a N-terminal nonahistidine tag; purchased R&D Systems 1797-MS
T2 sequence (P30204 79-458 limits assumed): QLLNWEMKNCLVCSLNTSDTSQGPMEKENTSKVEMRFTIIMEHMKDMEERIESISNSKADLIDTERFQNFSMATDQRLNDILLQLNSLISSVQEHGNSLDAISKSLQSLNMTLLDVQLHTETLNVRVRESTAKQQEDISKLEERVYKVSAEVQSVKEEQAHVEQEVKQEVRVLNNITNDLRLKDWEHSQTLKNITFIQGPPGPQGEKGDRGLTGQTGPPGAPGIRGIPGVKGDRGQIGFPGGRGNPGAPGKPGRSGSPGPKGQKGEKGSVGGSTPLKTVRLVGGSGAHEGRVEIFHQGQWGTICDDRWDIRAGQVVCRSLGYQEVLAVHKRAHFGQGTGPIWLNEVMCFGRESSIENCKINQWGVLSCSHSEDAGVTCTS
Protocol: Binding affinities and kinetic constants of human anti-MSR1 antibodies for different MSR1 reagents were determined using a real time, label-free bio-layer interferometry assay on an OCTET® HTX biosensor platform (Pall FortéBio Corp., Menlo Park, Calif.). The experiment was performed at 25° C. in 10 mM HEPES, 150 mM NaCl, 3 mM EDTA, 0.05% v/v Surfactant Tween-20, and 1 mg/mL BSA, pH7.4 (HBS-EBT) buffer with the plate shaking at the speed of 1000 rpm. […] The binding of different MSR1 reagents to the captured anti-MSR1 monoclonal antibody was measured for 4 minutes and the dissociation of monoclonal antibody bound MSR1 reagent was monitored for 8-10 minutes in HBS-EBT buffer.
The association rate (ka) and dissociation rate (kd) were determined by fitting the real-time binding sensorgrams to a 1:1 binding model with mass transport limitation using Scrubber 2.0 c curve-fitting software. Binding dissociation equilibrium constant (KD) and dissociative half-life (t½) were calculated from the kinetic rates as: […]

[4] = mAb or conjugate dose 0.1 mg/kg

B1: H1H21234N-N297Q: "An anti-MSR1 antibody H1H21234N containing a N297Q mutation, which eliminates N-linked glycosylation of the Fc at this site" (antibody, V domains shown)
VH: QVQLQESGPGLVKPSETLSLTCTVTGGSISRNYWSWIRQPPGKGLEWIGYIYYSGSIDYNPSLKSRVTISVDTSKNQFSLKLSSMTAADTAVYYCARDRWNWKYGMDVWGQGTTVIVSS
VL: EIVLTQSPGTLSLSPGERATLSCRASQTVRNNYLAWYHQKPGQAPRLLIYGASSRATGIPDRFSGSGSGTDFTLTISRLEPEDFTVYYCHQYGNSPWTFGQGTKMEIKR
- Total Binding at 4° C. ([1]; 4° C.): 1953248
- % Internalization ([1]; 37° C.): 13.3%
- Total Binding at 37° C. ([1]; 37° C.): 5451125
- Total Internalized RFU ([1]; 37° C.): 722651 RFU
- Average cfu/kidney pair [2, 4]: 2.43E+05 cfu/kidney pair
- # of mice with S. aureus below the limit of detection [2, 4]: 0/6
- Average cfu/kidney pair ([2]; mAb or conjugate dose 1 mg/kg): 1.55E+05 cfu/kidney pair
- # of mice with S. aureus below the limit of detection ([2]; mAb or conjugate dose 1 mg/kg): 4/8
- kd ([3]; analyte His9-mMSR1, * = no dissociation observed, kd manually fixed at 5.00E−05): 5.00E−05* s^−1
- ka ([3]; analyte His9-mMSR1, NB = no binding, IC = inconclusive): 38200 M⁻¹ s⁻¹
